Results from the PETadex activity labels (doi:10.1021/acs.est.4c01495).

Assays:
p-NP-C4 = conditions: 35 °C
gfPET = test: Proxy for plastic degradation [Released monomer concentration (HPLC/LC-MS) (TPA+MHET)]; conditions: pH 8

B1: unnamed (protein)
chain: MDGVLWRVRTAALMAALLALAAWALVWASPSVEAQSNPYQRGPNPTRSALTADGPFSVATYTVSRLSVSGFGGGVIYYPTGTSLTFGGIAMSPGYTADASSLAWLGRRLASHGFVVLVINTNSRFDYPDSRASQLSAALNYLRTSSPSAVRARLDANRLAVAGHSMGGGGTLRIAEQNPSLKAAVPLTPWHTDKTFNTSVPVLIVGAEADTVAPVSQHAIPFYQNLPSTTPKVYVELDNASHFAPNSNNAAISVYTISWMKLWVDNDTRYRQFLCNVNDPALSDFRTNNRHCQ
Km (p-NP-C4): 300 µM | kcat (p-NP-C4): 21.6 s⁻¹ | kcat/Km (p-NP-C4): 71900 M⁻¹ s⁻¹ | Proxy for plastic degradation (gfPET; 35 °C, 1 h): 5 µM | Proxy for plastic degradation (gfPET; 35 °C, 3 h): 14 µM | Proxy for plastic degradation (gfPET; 35 °C, 5 h): 39 µM | Proxy for plastic degradation (gfPET; 35 °C, 7 h): 95 µM | Proxy for plastic degradation (gfPET; 35 °C, 10 h): 182 µM | Proxy for plastic degradation (gfPET; 50 °C, 1 h): 480 µM | Proxy for plastic degradation (gfPET; 50 °C, 3 h): 1470 µM | Proxy for plastic degradation (gfPET; 50 °C, 5 h): 2380 µM | Proxy for plastic degradation (gfPET; 50 °C, 7 h): 3250 µM | Proxy for plastic degradation (gfPET; 50 °C, 10 h): 4130 µM

B2: unnamed (protein)
chain: MNFPRASRLMQAAVLGGLMAVSAAATAQTNPYARGPNPTAASLEASAGPFTVRSFTVSRPSGYGAGTVYYPTNAGGTVGAIAIVPGYTARQSSIKWWGPRLASHGFVVITIDTNSTLDQPSSRSSQQMAALRQVASLNGTSSSPIYGKVDTARMGVMGWSMGGGGSLISAANNPSLKAAAPQAPWDSSTNFSSVTVPTLIFACENDSIAPVNSSALPIYDSMSRNAKQFLEINGGSHSCANSGNSNQALIGKKGVAWMKRFMDNDTRYSTFACENPNSTRVSDFRTANCS
Km (p-NP-C4; part of the chain shown): 240 µM | kcat (p-NP-C4; part of the chain shown): 15.1 s⁻¹ | kcat/Km (p-NP-C4; part of the chain shown): 62900 M⁻¹ s⁻¹ | Proxy for plastic degradation (gfPET; 35 °C, 1 h, part of the chain shown): 17 µM | Proxy for plastic degradation (gfPET; 35 °C, 3 h, part of the chain shown): 38 µM | Proxy for plastic degradation (gfPET; 35 °C, 5 h, part of the chain shown): 45 µM | Proxy for plastic degradation (gfPET; 35 °C, 7 h, part of the chain shown): 55 µM | Proxy for plastic degradation (gfPET; 35 °C, 10 h, part of the chain shown): 77 µM | Proxy for plastic degradation (gfPET; 50 °C, 1 h, part of the chain shown): 10 µM | Proxy for plastic degradation (gfPET; 50 °C, 3 h, part of the chain shown): 25 µM | Proxy for plastic degradation (gfPET; 50 °C, 5 h, part of the chain shown): 50 µM | Proxy for plastic degradation (gfPET; 50 °C, 7 h, part of the chain shown): 70 µM | Proxy for plastic degradation (gfPET; 50 °C, 10 h, part of the chain shown): 209 µM
